Experimental data reported in publication PMC5908291, “The JmjN domain as a dimerization interface and a targeted inhibitor of KDM4 demethylase activity” (Oncotarget, 2018).

B1: KDM4A with a C-terminal YN or YC tag (enzyme, human, UniProt O75164 1-1064, looked up)
chain: MASESETLNPSARIMTFYPTMEEFRNFSRYIAYIESQGAHRAGLAKVVPPKEWKPRASYDDIDDLVIPAPIQQLVTGQSGLFTQYNIQKKAMTVREFRKIANSDKYCTPRYSEFEELERKYWKNLTFNPPIYGADVNGTLYEKHVDEWNIGRLRTILDLVEKESGITIEGVNTPYLYFGMWKTSFAWHTEDMDLYSINYLHFGEPKSWYSVPPEHGKRLERLAKGFFPGSAQSCEAFLRHKMTLISPLMLKKYGIPFDKVTQEAGEFMITFPYGYHAGFNHGFNCAESTNFATRRWIEYGKQAVLCSCRKDMVKISMDVFVRKFQPERYKLWKAGKDNTVIDHTLPTPEAAEFLKESELPPRAGNEEECPEEDMEGVEDGEEGDLKTSLAKHRIGTKRHRVCLEIPQEVSQSELFPKEDLSSEQYEMTECPAALAPVRPTHSSVRQVEDGLTFPDYSDSTEVKFEELKNVKLEEEDEEEEQAAAALDLSVNPASVGGRLVFSGSKKKSSSSLGSGSSRDSISSDSETSEPLSCRAQGQTGVLTVHSYAKGDGRVTVGEPCTRKKGSAARSFSERELAEVADEYMFSLEENKKSKGRRQPLSKLPRHHPLVLQECVSDDETSEQLTPEEEAEETEAWAKPLSQLWQNRPPNFEAEKEFNETMAQQAPHCAVCMIFQTYHQVEFGGFNQNCGNASDLAPQKQRTKPLIPEMCFTSTGCSTDINLSTPYLEEDGTSILVSCKKCSVRVHASCYGVPPAKASEDWMCSRCSANALEEDCCLCSLRGGALQRANDDRWVHVSCAVAILEARFVNIAERSPVDVSKIPLPRFKLKCIFCKKRRKRTAGCCVQCSHGRCPTAFHVSCAQAAGVMMQPDDWPFVVFITCFRHKIPNLERAKGALQSITAGQKVISKHKNGRFYQCEVVRLTTETFYEVNFDDGSFSDNLYPEDIVSQDCLQFGPPAEGEVVQVRWTDGQVYGAKFVASHPIQMYQVEFEDGSQLVVKRDDVYTLDEELPKRVKSRLSVASDMRFNEIFTEKEVKQEKKRQRVINSRYREDYIEPALYRAIME
notes: Lysine demethylase KDM4A (JmjD2A), human, ORF amplified from pCMV-HA-JmjD2A; BiFC pair: one molecule stands for the YN and the YC conjugate; also called KDM4A-YN; KDM4A-YC; source: HEK293, transiently transfected, in cells; not shown: YN (Venus YFP residues 1-172) on one copy or YC (Venus YFP residues 155-238) on the other, C-terminal, kept
B2: KDM4C with a C-terminal YN or YC tag (enzyme, human, UniProt Q9H3R0 1-1056, looked up)
chain: MEVAEVESPLNPSCKIMTFRPSMEEFREFNKYLAYMESKGAHRAGLAKVIPPKEWKPRQCYDDIDNLLIPAPIQQMVTGQSGLFTQYNIQKKAMTVKEFRQLANSGKYCTPRYLDYEDLERKYWKNLTFVAPIYGADINGSIYDEGVDEWNIARLNTVLDVVEEECGISIEGVNTPYLYFGMWKTTFAWHTEDMDLYSINYLHFGEPKSWYAIPPEHGKRLERLAQGFFPSSSQGCDAFLRHKMTLISPSVLKKYGIPFDKITQEAGEFMITFPYGYHAGFNHGFNCAESTNFATVRWIDYGKVAKLCTCRKDMVKISMDIFVRKFQPDRYQLWKQGKDIYTIDHTKPTPASTPEVKAWLQRRRKVRKASRSFQCARSTSKRPKADEEEEVSDEVDGAEVPNPDSVTDDLKVSEKSEAAVKLRNTEASSEEESSASRMQVEQNLSDHIKLSGNSCLSTSVTEDIKTEDDKAYAYRSVPSISSEADDSIPLSSGYEKPEKSDPSELSWPKSPESCSSVAESNGVLTEGEESDVESHGNGLEPGEIPAVPSGERNSFKVPSIAEGENKTSKSWRHPLSRPPARSPMTLVKQQAPSDEELPEVLSIEEEVEETESWAKPLIHLWQTKSPNFAAEQEYNATVARMKPHCAICTLLMPYHKPDSSNEENDARWETKLDEVVTSEGKTKPLIPEMCFIYSEENIEYSPPNAFLEEDGTSLLISCAKCCVRVHASCYGIPSHEICDGWLCARCKRNAWTAECCLCNLRGGALKQTKNNKWAHVMCAVAVPEVRFTNVPERTQIDVGRIPLQRLKLKCIFCRHRVKRVSGACIQCSYGRCPASFHVTCAHAAGVLMEPDDWPYVVNITCFRHKVNPNVKSKACEKVISVGQTVITKHRNTRYYSCRVMAVTSQTFYEVMFDDGSFSRDTFPEDIVSRDCLKLGPPAEGEVVQVKWPDGKLYGAKYFGSNIAHMYQVEFEDGSQIAMKREDIYTLDEELPKRVKARFSTASDMRFEDTFYGADIIQGERKRQRVLSSRFKNEYVADPVYRTFLKSSFQKKCQKRQ
notes: Lysine demethylase KDM4C (GASC1), human, ORF amplified from pCMV-HA-GASC1; 1056 aa as printed; BiFC pair: one molecule stands for the YN and the YC conjugate; also called KDM4C-YN; KDM4C-YC; source: HEK293, transiently transfected, in cells; not shown: YN (Venus YFP residues 1-172) on one copy or YC (Venus YFP residues 155-238) on the other, C-terminal, kept

Experiments:
Assay in all cases: split reporter (BiFC, NanoBiT); BiFC (Venus YN + YC), IF microscopy of fixed HEK293 cells with quantitative image analysis (Imaris): mean reconstituted YFP fluorescence in each anti-YFP positive cell, >100 cells for each transfection
[1] = target: B2
[2] = target: KDM4B with a C-terminal YN or YC tag (human) (UniProt O94953)
[3] = target: the molecule itself

KDM4B with a C-terminal YN or YC tag (human), sequence (O94953 whole entry): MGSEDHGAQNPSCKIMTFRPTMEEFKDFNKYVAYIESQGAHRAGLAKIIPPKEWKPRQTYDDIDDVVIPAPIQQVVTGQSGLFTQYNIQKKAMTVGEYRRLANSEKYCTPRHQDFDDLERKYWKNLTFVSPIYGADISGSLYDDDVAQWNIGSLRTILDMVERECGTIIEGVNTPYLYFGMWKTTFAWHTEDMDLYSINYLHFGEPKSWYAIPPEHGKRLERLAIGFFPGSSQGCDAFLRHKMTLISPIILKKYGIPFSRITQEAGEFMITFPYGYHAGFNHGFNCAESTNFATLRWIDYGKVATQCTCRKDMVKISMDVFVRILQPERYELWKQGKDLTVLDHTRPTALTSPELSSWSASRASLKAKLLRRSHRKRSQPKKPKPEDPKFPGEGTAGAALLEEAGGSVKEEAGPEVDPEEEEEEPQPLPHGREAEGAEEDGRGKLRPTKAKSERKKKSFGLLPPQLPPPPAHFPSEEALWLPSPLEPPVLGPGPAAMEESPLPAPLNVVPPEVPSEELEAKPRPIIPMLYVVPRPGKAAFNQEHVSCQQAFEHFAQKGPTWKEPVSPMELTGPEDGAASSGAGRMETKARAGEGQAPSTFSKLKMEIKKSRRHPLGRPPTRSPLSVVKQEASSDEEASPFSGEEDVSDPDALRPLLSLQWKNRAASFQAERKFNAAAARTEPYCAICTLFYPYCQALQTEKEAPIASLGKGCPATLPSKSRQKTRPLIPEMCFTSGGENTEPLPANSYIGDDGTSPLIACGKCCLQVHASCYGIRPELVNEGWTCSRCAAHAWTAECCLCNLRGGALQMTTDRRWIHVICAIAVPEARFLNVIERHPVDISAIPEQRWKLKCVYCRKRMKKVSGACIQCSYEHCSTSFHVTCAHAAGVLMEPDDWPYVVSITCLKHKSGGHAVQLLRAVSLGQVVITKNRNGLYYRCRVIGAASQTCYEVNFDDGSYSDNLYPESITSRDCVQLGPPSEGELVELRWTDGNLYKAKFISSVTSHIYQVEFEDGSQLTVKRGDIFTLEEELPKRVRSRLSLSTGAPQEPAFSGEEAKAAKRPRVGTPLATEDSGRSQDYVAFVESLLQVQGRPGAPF

Molecule | YFP fluorescence (BiFC), Average (arbitrary units) [1] | YFP fluorescence (BiFC), Max (arbitrary units) [1] | YFP fluorescence (BiFC), Median (arbitrary units) [1] | YFP fluorescence (BiFC), Min (arbitrary units) [1] | YFP fluorescence (BiFC), Average (arbitrary units) [2] | YFP fluorescence (BiFC), Max (arbitrary units) [2] | YFP fluorescence (BiFC), Median (arbitrary units) [2] | YFP fluorescence (BiFC), Min (arbitrary units) [2] | YFP fluorescence (BiFC), Average [3] [arbitrary units] | YFP fluorescence (BiFC), Max [3] [arbitrary units] | YFP fluorescence (BiFC), Median [3] [arbitrary units] | YFP fluorescence (BiFC), Min [3] [arbitrary units] | YFP fluorescence (BiFC), Average ([1]; partners not purified) [arbitrary units] | YFP fluorescence (BiFC), Max ([1]; partners not purified) [arbitrary units] | YFP fluorescence (BiFC), Median ([1]; partners not purified) [arbitrary units] | YFP fluorescence (BiFC), Min ([1]; partners not purified) [arbitrary units]
KDM4B with a C-terminal YN or YC tag (from UniProt O94953 1-1096) (enzyme) | 170 | 356 | 146 | 50 | 129 | 320 | 120 | 48 | – | – | – | – | – | – | – | –
B1 | – | – | – | – | 110 | 309 | 104 | 19 | 943 | 3140 | 726 | 259 | 845 | 3080 | 717 | 320
B2 | – | – | – | – | – | – | – | – | 741 | 2890 | 628 | 204 | – | – | – | –
